Data: the RNAGym collection of RNA variant scans (doi:10.1073/pnas.2313332121)

B1: TPR t1 (parent)
chain: GACCAAUCUGCCCUCAGAGCUCGAGAACAUCUUCGGAUGCAGAGGAGGCAGGCUUCGGUGGCGCGAUAGCGCCAACGUCCUCAACCUCCAAUGCAUCCCACCACAUGAUGAUGCCUGAAGAGCCUUGGUUUUUUG

Variants of: B1
Test: polymerase ribozyme fitness, log enrichment relative to wild type (log ratio); higher = more active; in vitro selection for triplet polymerase activity
Outline: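 A heterodimeric triplet polymerase ribozyme had each of its subunits mutagenized by PCR into a library, which was transcribed. One round of in vitro selection, done in triplicate, annealed each library with a biotinylated primer, its partner subunit and triplets, then incubated it frozen at −7 °C before gel excision of extended constructs, streptavidin-bead capture and RT-PCR. Fitness is the logarithm of genotype enrichment relative to wild-type enrichment, based on Illumina sequencing of inputs and outputs and inverse-variance-weighted replicate averages. A base-2 logarithm is used, and genotypes were kept only with ≥10 input reads and ≥1 read per output.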

Variant | polymerase ribozyme fitness (log ratio)
G61A A66C U78C C88G | -2.23
G61A U87A | 0.597
G61A G93A | -0.586
G61A G93C | -0.381
G61U A66C U92A | -4.97
G61U A66C U92C | -2.21
G60C C94U | -0.143
G60C C94G | -1.12
G61C C124A | -0.457
G60U C85A C101U | -0.366
G60U C94U G110C | -4.16
G60U A84G C86U G135C | -0.459
G60U C123G C124U | 2.24
G61A A74C G128C | -5.31
G61U A75C | -0.117
G61C A75U C97U | -0.192
G61U C72G | -0.168
G61U C72A | 0.45
G60C G93C G120A U126C | -0.901
G61A C70U | -0.854
G61A C70A | -3.99

Variant | polymerase ribozyme fitness (log ratio)
G61A C94U | -0.0774
G61A C94A | -0.27
G61C G127A | -2.71
G60U C62U U78G C80A U112C | -1.42
G61A A90G | -0.68
G61C G122A G128U G135U | -3.92
G61A C85U G117A U129C | -2.75
G61A G110U | -0.817
G61A G110C | -3.29
G61C A103C U130G | -6.98
G61C C80A C101A G110A U112G C115U | -8.21
G60U A91G C123U | -0.372
G61A G71U A95U U106G G120U | -5.9
G61A G93C A95C | -1.24
G60C G117U | -3.4
G60C G117C | -4.28
G60U C70A | -3.78
G60C U125A | -0.729
G60C G135A | -1.35
G60C G135U | -1.23
G61U C73U G93U | -2.38

Variant | polymerase ribozyme fitness (log ratio)
G61A G93A C104U | 0.015
G61C A66U A121G | -0.122
G61C C94U C115U A121G | -4.32
G61A C73A | -0.202
G60U G127A | -0.768
G61C G122A U126C G135U | -4.38
G60U A108C C124A | -5.47
G61C U78C | -2
G61U A84C | 0.447
G60U U109G U125G U130G | -5.39
G60C G71U G120U U130G | -5.39
G61C A75U A84C A95C | -1.21
G61C G113A | -2.26
G61C G113C | -3.19
G60U G63U C99U C101G C115G G122U C124G | -6.39
G61A C82U | 0.141
G61A C82G | -1.29
G61A C82A | -0.883
G61A C62G A75G A95U A121C | -5.37
G60C U116C | -1.73
G60C U81C | -0.172

Variant | polymerase ribozyme fitness (log ratio)
G60C C124U | 1
G61C C79G C86U | -1.95
G61A A74C U112A | -2.06
G60U A111G | 0.488
G60U A111U | -2.87
G61C U78A U106A G120A | 0.446
G61C C94A U131G | -2.91
G60C G127U | -0.837
G61C C72A C101A G120U C123A | -0.675
G60C C115A | 0.199
G61C G69U | -1.37
G60U C70U C94U | -2.63
G60U | 0.0514
G61A U116C | -0.278
G61A U116G | -3.01
G60C G69U C80U | -5.8
G61A A91C A95U G110U C115A U125C U130C | -3.6
G61A U130A | 0.0628
G61A U130G | -0.92
G60U C62U | -0.758
